Data taken from patent US20150218594A1, “CELL-FREE AND MINIMIZED METABOLIC REACTION CASCADES FOR THE PRODUCTION OF CHEMICALS” (CLARIANT PRODUKTE (DEUTSCHLAND) GMBH, priority 2012, published 2015).

Key:
Type in all cases: biochemical
[1] = Screening of TaALDH variants, relative activity under standard conditions (2 mM NAD); details: for 2 mM NAD (mU/mL): 1 mM D-glyceraldehyde, 50° C., pH 7, lysate supernatant; for relative to wt: mU/mL values normalized to the wildtype control value
Description: (§1) Colonies of E. coli BL21 (DE3) containing Ta-ALDH library were transferred into 96-deepwell plates (Gainer BioOne) containing Zym5052 autoinduction medium (Protein Expression and Purification, 2005. 41(1): p. 207-234). Cultures were grown over night at 37° C., 1000 rpm. Cells were harvested by centrifugation at 5000 g at 2° C. for 2 min and lysed with B-Per® protein extraction reagent (Thermo Fisher Scentific, Rockford, USA). After incubation for 60 min at 50° C., insoluble cell debris and was removed by centrifugation at 5000 g at 20° C. for 30 min. Supernatants containing variants of TaALDH were tested for relative activity under standard conditions: 2 mM NAD, 1 mM D-glyceraldehyde in 50 mM HEPES (pH 7) at 50° C. After 20 min NADH formation was detected spectrophotometrically at 340 nm.
(§2) The values “relative to wt” are the mU/mL values normalized to the wildtype control value.

[2] = Cofactor acceptance of Ta-ALDH variants (10 mM NAD); details: for 10 mM NAD (mU/mL): 1 mM D-glyceraldehyde, 50° C., pH 7; for 10 mM NAD (mU/mL) / relative to wt: 10 mM NAD; for relative to wt: normalized to the wildtype control value; for 10 mM NAD /2 mM NAD: ratio of activity at 10 mM NAD to 2 mM NAD
Description: as §1
Change in cofactor acceptance of Ta-ALDH variants was tested under standard assay conditions but with 10 mM NAD. After 20 min NADH formation was detected and compared to relative activity.
as §2

[3] = Activity in solvents of Ta-ALDH variants (3 % isobutanol); details: for 3 % isobutanol, 2 mM NAD (mU/mL): 50° C., pH 7; for 3 % isobutanol, 2 mM NAD (mU/mL) / relative to wt: 3 % isobutanol, 2 mM NAD; for relative to wt: normalized to the wildtype control value; for Stab. rel to wt: stability in 3 % isobutanol relative to wildtype
Description: as §1
Activity in solvents of Ta-ALDH variants was tested under standard assay conditions containing additional solvent. After 20 min NADH formation was detected and compared to relative activity.
as §2

Row | Molecule | 2 mM NAD (mU/mL) [1] | relative to wt [1] | 10 mM NAD (mU/mL) [2] | relative to wt [2] | 10 mM NAD /2 mM NAD [2] | 3 % isobutanol, 2 mM NAD (mU/mL) [3] | relative to wt [3] | Stab. rel to wt [3]
1 | S405C: optimized Thermoplasma acidophilum aldehyde dehydrogenase with the mutation of S405C (protein, TaALDH-S405C-Chis) MDTKLYIDGQWVNSSSGKTVDKYSPVTGQVIGRFEAATRDDVDRAIDAAEDAFWAWNDLGSVERSKIIYRAKELIEKNRAELENIIMEENGKPVKEAKEEVDGVIDQIQYYAEWARKLNGEVVEGTSSHRKIFQYKVPYGIVVALTPWNFPAGMVARKLAPALLTGNTVVLKPSSDTPGSAEWIVRKFVEAGVPKGVLNFITGRGSEIGDYIVEHKKVNLITMTGSTATGQRIMQKASANMAKLILELGGKAPFMVWKDADMDNALKTLLWAKYWNAGQSCIAAERLYVHEDIYDTFMSRFVELSRKLALGDPKNADMGPLINKGALQATSEIVEEAKESGAKILFGGSQPSLSGPYRNGYFFLPTIIGNADQKSKIFQEEIFAPVIGARKISSVEEMYDLANDCKYGLASYLFTKDPNIIFEASERIRFGELYVNMPGPEASQGYHTGFRMTGQAGEGSKYGISEYLKLKNIYVDYSGKPLHINTVRDDLFQSGRPVLGSSHHHHHH | 19.29 mU/mL | 6.7 | 66.82 mU/mL | 5.6 | 0.8 | 12.65 mU/mL | 7.9 | 1.2
2 | W271S: optimized Thermoplasma acidophilum aldehyde dehydrogenase with the mutation of W271S (protein, TaALDH-W271S-Chis) MDTKLYIDGQWVNSSSGKTVDKYSPVTGQVIGRFEAATRDDVDRAIDAAEDAFWAWNDLGSVERSKIIYRAKELIEKNRAELENIIMEENGKPVKEAKEEVDGVIDQIQYYAEWARKLNGEVVEGTSSHRKIFQYKVPYGIVVALTPWNFPAGMVARKLAPALLTGNTVVLKPSSDTPGSAEWIVRKFVEAGVPKGVLNFITGRGSEIGDYIVEHKKVNLITMTGSTATGQRIMQKASANMAKLILELGGKAPFMVWKDADMDNALKTLLSAKYWNAGQSCIAAERLYVHEDIYDTFMSRFVELSRKLALGDPKNADMGPLINKGALQATSEIVEEAKESGAKILFGGSQPSLSGPYRNGYFFLPTIIGNADQKSKIFQEEIFAPVIGARKISSVEEMYDLANDSKYGLASYLFTKDPNIIFEASERIRFGELYVNMPGPEASQGYHTGFRMTGQAGEGSKYGISEYLKLKNIYVDYSGKPLHINTVRDDLFQSGRPVLGSSHHHHHH | 58.35 mU/mL | 20.2 | 181.89 mU/mL | 15.3 | 0.8 | 20.8 mU/mL | 13 | 0.6
3 | F34M W271S Y399C S405N: optimized Thermoplasma acidophilum aldehyde dehydrogenase with the mutations F34M, W271S, Y399C and S405N (protein, TaALDH-F34M-W271S-Y399C-S405N-Chis) MDTKLYIDGQWVNSSSGKTVDKYSPVTGQVIGRMEAATRDDVDRAIDAAEDAFWAWNDLGSVERSKIIYRAKELIEKNRAELENIIMEENGKPVKEAKEEVDGVIDQIQYYAEWARKLNGEVVEGTSSHRKIFQYKVPYGIVVALTPWNFPAGMVARKLAPALLTGNTVVLKPSSDTPGSAEWIVRKFVEAGVPKGVLNFITGRGSEIGDYIVEHKKVNLITMTGSTATGQRIMQKASANMAKLILELGGKAPFMVWKDADMDNALKTLLSAKYWNAGQSCIAAERLYVHEDIYDTFMSRFVELSRKLALGDPKNADMGPLINKGALQATSEIVEEAKESGAKILFGGSQPSLSGPYRNGYFFLPTIIGNADQKSKIFQEEIFAPVIGARKISSVEEMCDLANDNKYGLASYLFTKDPNIIFEASERIRFGELYVNMPGPEASQGYHTGFRMTGQAGEGSKYGISEYLKLKNIYVDYSGKPLHINTVRDDLFQSGRPVLGSSHHHHHH | 3 mU/mL | 1.0 | 8.08 mU/mL | 0.7 | 0.7 | 1.3 mU/mL | 0.8 | 0.8
4 | F34L: optimized Thermoplasma acidophilum aldehyde dehydrogenase with the mutation of F34L (protein, taALDH-F34L-Chis) MDTKLYIDGQWVNSSSGKTVDKYSPVTGQVIGRLEAATRDDVDRAIDAAEDAFWAWNDLGSVERSKIIYRAKELIEKNRAELENIIMEENGKPVKEAKEEVDGVIDQIQYYAEWARKLNGEVVEGTSSHRKIFQYKVPYGIVVALTPWNFPAGMVARKLAPALLTGNTVVLKPSSDTPGSAEWIVRKFVEAGVPKGVLNFITGRGSEIGDYIVEHKKVNLITMTGSTATGQRIMQKASANMAKLILELGGKAPFMVWKDADMDNALKTLLWAKYWNAGQSCIAAERLYVHEDIYDTFMSRFVELSRKLALGDPKNADMGPLINKGALQATSEIVEEAKESGAKILFGGSQPSLSGPYRNGYFFLPTIIGNADQKSKIFQEEIFAPVIGARKISSVEEMYDLANDSKYGLASYLFTKDPNIIFEASERIRFGELYVNMPGPEASQGYHTGFRMTGQAGEGSKYGISEYLKLKNIYVDYSGKPLHINTVRDDLFQSGRPVLGSSHHHHHH | 9.09 mU/mL | 3.1 | 31.72 mU/mL | 2.7 | 0.8 | 4.08 mU/mL | 2.6 | 0.8
5 | F34M W271S S405N: TaALDH variant with the mutations F34M, W271S and S405N; no SEQ ID printed (protein) MDTKLYIDGQWVNSSSGKTVDKYSPVTGQVIGRMEAATRDDVDRAIDAAEDAFWAWNDLGSVERSKIIYRAKELIEKNRAELENIIMEENGKPVKEAKEEVDGVIDQIQYYAEWARKLNGEVVEGTSSHRKIFQYKVPYGIVVALTPWNFPAGMVARKLAPALLTGNTVVLKPSSDTPGSAEWIVRKFVEAGVPKGVLNFITGRGSEIGDYIVEHKKVNLITMTGSTATGQRIMQKASANMAKLILELGGKAPFMVWKDADMDNALKTLLSAKYWNAGQSCIAAERLYVHEDIYDTFMSRFVELSRKLALGDPKNADMGPLINKGALQATSEIVEEAKESGAKILFGGSQPSLSGPYRNGYFFLPTIIGNADQKSKIFQEEIFAPVIGARKISSVEEMYDLANDNKYGLASYLFTKDPNIIFEASERIRFGELYVNMPGPEASQGYHTGFRMTGQAGEGSKYGISEYLKLKNIYVDYSGKPLHINTVRDDLFQSGRPVLGSSHHHHHH | 125.38 mU/mL | 43.4 | 279.58 mU/mL | 23.5 | 0.5 | 43.86 mU/mL | 27.5 | 0.6
6 | Y399R: optimized Thermoplasma acidophilum aldehyde dehydrogenase with the mutation of Y399R (protein, TaALDH-Y399R-Chis) MDTKLYIDGQWVNSSSGKTVDKYSPVTGQVIGRFEAATRDDVDRAIDAAEDAFWAWNDLGSVERSKIIYRAKELIEKNRAELENIIMEENGKPVKEAKEEVDGVIDQIQYYAEWARKLNGEVVEGTSSHRKIFQYKVPYGIVVALTPWNFPAGMVARKLAPALLTGNTVVLKPSSDTPGSAEWIVRKFVEAGVPKGVLNFITGRGSEIGDYIVEHKKVNLITMTGSTATGQRIMQKASANMAKLILELGGKAPFMVWKDADMDNALKTLLWAKYWNAGQSCIAAERLYVHEDIYDTFMSRFVELSRKLALGDPKNADMGPLINKGALQATSEIVEEAKESGAKILFGGSQPSLSGPYRNGYFFLPTIIGNADQKSKIFQEEIFAPVIGARKISSVEEMRDLANDSKYGLASYLFTKDPNIIFEASERIRFGELYVNMPGPEASQGYHTGFRMTGQAGEGSKYGISEYLKLKNIYVDYSGKPLHINTVRDDLFQSGRPVLGSSHHHHHH | 3.76 mU/mL | 1.3 | 11.56 mU/mL | 1.0 | 0.7 | 2.16 mU/mL | 1.4 | 1
